Data from publication PMC3280215.

Experiments:
[1] = target: engineered outer domain mini-V3 (glycosylated gp120 outer domain construct containing a truncated V3 loop) (HIV-1)
[2] = target: soluble, partially deglycosylated 664G Env trimer (HIV-1); test: negative-stain EM reconstruction

| Binder | Kd [1] [nM] | fold less than the interaction with m8 [1] [fold] | stoichiometry N [2] |
| --- | --- | --- | --- |
| PGT 128 (format not stated for the experiment) (antibody, V domains shown) VH: QPQLQESGPTLVEASETLSLTCAVSGDSTAACNSFWGWVRQPPGKGLEWVGSLSHCASYWNRGWTYHNPSLKSRLTLALDTPKNLVFLKLNSVTAADTATYYCARFGGEVLRYTDWPKPAWVDLWGRGTLVTVSS VL: QSALTQPPSASGSPGQSITISCTGTSNNFVSWYQQHAGKAPKLVIYDVNKRPSGVPDRFSGSKSGNTASLTVSGLQTDDEAVYYCGSLVGNWDVIFGGGTKLTVL | 46 | 8 | – |
| Fab PGT 128 (Fab, V domains shown) VH: QPQLQESGPTLVEASETLSLTCAVSGDSTAACNSFWGWVRQPPGKGLEWVGSLSHCASYWNRGWTYHNPSLKSRLTLALDTPKNLVFLKLNSVTAADTATYYCARFGGEVLRYTDWPKPAWVDLWGRGTLVTVSS VL: QSALTQPPSASGSPGQSITISCTGTSNNFVSWYQQHAGKAPKLVIYDVNKRPSGVPDRFSGSKSGNTASLTVSGLQTDDEAVYYCGSLVGNWDVIFGGGTKLTVL | – | – | 3 |
